{
  "source": "the nanobody polyreactivity screen of Harvey et al. (2022)",
  "data": [
    {"experiment": "yeast display, Sf9 membrane polyspecificity reagent, FACS + sequencing; frameworks hold sequencing errors", "how_it_was_run": "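Galactose induction of a Saccharomyces cerevisiae BJ5465 synthetic nanobody display library ran 36–48 hours. The cells were then stained for 1 hour at 4 °C with 10% biotinylated, detergent-solubilized Sf9 membrane reagent, pulled down on streptavidin microbeads and FACS-sorted into low and high (top ~1%) gates on expression and reagent-binding fluorescence. Labels for polyreactivity follow the gate of origin.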", "values": [
      {"sequence": "QVQLVDSGGGLVQAGGSLRLSCAASGSTFQPYAMGWYRQAPGKERELVAAIRYSGGITYYADSVKGRFTISRDNAKNTVYLQMNSLKPEDTAVYYCAAYGFYGGDYWGQGTQVTVSS", "polyreactivity (PSR sort gate)": "high polyreactivity"},
      {"sequence": "QVQLVDSGGGLVQAGGSLRLSCAASGSTFRGYDMGWYRQAPGKESELVAAITGSGTSTYYADSVKVRFTISRDNAKNTVYLQMNSLKPEDTAVYYCAARSRRPAERMYYWGQGTQVTVSS", "polyreactivity (PSR sort gate)": "high polyreactivity"},
      {"sequence": "QVQLVDSGGGLVQAGGSLRLSCAASGSTFSDSPMGGYRQAPGKERELVAGITGGGGTYYADSVKGRFTISRDNAKNTVYLQMNSLKPEDTAVYYCAAGYGRRIRYGSEYDYWGQGTQVTVSS", "polyreactivity (PSR sort gate)": "low polyreactivity"},
      {"sequence": "QVQLVDSGGGLVQAGGSLRLSCAASGSTFSLYAMGWYRQAPGKEREMVASITWGGGSTYADSVKGRFTISRDNAKNTVYLQMNSLKPEDTAVYYCARKFRYRVLYDFAYDHWGLGTQVTVSS", "polyreactivity (PSR sort gate)": "low polyreactivity"},
      {"sequence": "QVQLVDSGGGLVQAGGSLRLSCAASGSTFSYYAMGWYRQAPGKERELVAAISYSGDSTYYADTVKGRFTISRDNAKNTVYLQMNSLKPEDSAVYYCNADSPFNGNLDRYFATLDDYWGQGTQVTVSS", "polyreactivity (PSR sort gate)": "low polyreactivity"},
      {"sequence": "QVQLVDSGGGLVQAGGSLRLSCAASGSTFVTYAMRWYRQAPVKERELVAAITEDGASTYYADSVKGRFTISRDNAKNTVYFQLNSLYPEDTAVYYCAADPTYWPVWYVLYDYWGQGTQVTVSS", "polyreactivity (PSR sort gate)": "low polyreactivity"},
      {"sequence": "QVQLVDSGGGLVQAGGSLRLSCAASGSTFYYYAMGWYRQAPGKERELVAAITYSGGSTTYADSVKGRFTFSRDNAKNTVYLQMNSLKPEDTAVYYCAAYVYRYHRVAYEYWGQGTQVTVSS", "polyreactivity (PSR sort gate)": "high polyreactivity"},
      {"sequence": "QVQLVDSGGGLVQAGGSLRLSCAASGSTLNVYAMGWSRQAPGKERELVATIRRRGTSTYYADSVKGRFTISRDNAKNTVYLQMNSLKPEDTAVYYCAADTRTYRLSSGSGHWEYDYWGQGTQVTVSS", "polyreactivity (PSR sort gate)": "high polyreactivity"},
      {"sequence": "QVQLVDSGGGLVQAGGSLRLSCAASGSTVKYAMGWYRQAPGKERELVASIRRSGGSTYYADSVKGRFTISRDNAKITVYLKMNSLNPEDTAVYYCAAPLFRWMDYWGQGTQVTVSS", "polyreactivity (PSR sort gate)": "high polyreactivity"},
      {"sequence": "QVQLVDSGGGLVQAGGSLRLSCAASGYIFSANAMGWYRQAPGKERELVAVISWNGDGTYYADSVKGRFTISRDNAKNTVYLQMNSLKAEDTAVYYCAALSYAYRSQSRRYGYRFDYWGQGTQVTVSS", "polyreactivity (PSR sort gate)": "high polyreactivity"},
      {"sequence": "QVQLVDSGGGLVQAGGSLRLSCAATGRIFAGYAMGGYRQAPGKERELVAAISDGGTTNYADSVKGRFTISRDNAKNTVYLQMNILKPEDTAVYYCAKDAAESYRYGYWGQGTQVTVSS", "polyreactivity (PSR sort gate)": "low polyreactivity"},
      {"sequence": "QVQLVDSGGGLVQAGGSLRLSCAATGTIFAAYVMGWYRQAPGKERELVAAISYSGGGTYYADSVNGRFTISRDNAKNTVYIQMNSLKPEDTAVYYCAADFGVFKSARYYYWGQGTQVTVSS", "polyreactivity (PSR sort gate)": "low polyreactivity"},
      {"sequence": "QVQLVDSGGGLVQAGGSLRLSCAAYGSTFRGYAMGWYRPAPGKERELVAAISWSGGITYYADSVKGRFTISRDNAKNTVYLQMNRLKPEDTAVYYCAAVWDQVSDRYMLEYCGQGTQVTVSS", "polyreactivity (PSR sort gate)": "high polyreactivity"},
      {"sequence": "QVQLVDSGGGLVQAGGSLRLSCAPSGTTYPGYAMGWYRQAPGKERELFAAIDRGGSTSYADSVKGRFTISRDNAKITVYLQMNSLKPEDTAFYYCAAEASVVHKSSDYDSWGQCTQVTVSS", "polyreactivity (PSR sort gate)": "low polyreactivity"},
      {"sequence": "QVQLVDSGGGLVQAGGSLRLSCASSGFIFQYNTMGWSRQAPGKERELVAVITRTGSTNYADSVKGRFTISRDNANNTVYLQMNSLKPEDTAVYYCATSVYSRPRKPRYYYWGQGTQLTVSS", "polyreactivity (PSR sort gate)": "high polyreactivity"},
      {"sequence": "QVQLVDSGGGLVQAGGSLRLSCSASGFTFAWYAMGWYRQAPGKERELVAAISGSGGRTYYADSVMGRFTISRDNAKNTVYLQMNSLIPEDTAVYYCATRRRYEYYWGQGTQVTVSS", "polyreactivity (PSR sort gate)": "high polyreactivity"},
      {"sequence": "QVQLVDSGGGLVQAGGSLRLSSAASGFTFVAYAMGGYRQAPGKERELVATITKGGGGTYYADSVKGRFTISRDNAKNTVYLQMNSLKPEDTAVYYCAADRQYRGRTRYVYAPLYYWGHGTQVTVSS", "polyreactivity (PSR sort gate)": "high polyreactivity"},
      {"sequence": "QVQLVDSGGGLVQAGGSLRLSSAASGYIFVVNAMGWYRPAPGKERELVAAIDWGGGSTYADSVKGRFTISRDNAKNTVYLQMNSLKPEDTAVYYCAADLWPYPTDYWGQGTQVTVSS", "polyreactivity (PSR sort gate)": "low polyreactivity"},
      {"sequence": "QVQLVDSGGGLVQAGGSLRLSWAASGSTFVYNAMGWYRQAPGKEREFVAGISRSGGSTYYADSVKGRFTISRDNAKNTVYFQMNSLKPEDTAVYYCNARGGLPKYGYWGQGTQVTVSS", "polyreactivity (PSR sort gate)": "high polyreactivity"},
      {"sequence": "QVQLVDSGGGLVQAGGSLRLTCAASGIIFYYYAMGWYRQAPGKERELVAAITGTGSRTYYADSVKGRFTISRDNAKNTVYLQMNSLKPEDTAVYYCNARSFATGSKVPARGYWGQGTQVTVSS", "polyreactivity (PSR sort gate)": "high polyreactivity"},
      {"sequence": "QVQLVDSGGGLVQAGGSLRLTCAASGKIFVPNAMGWNRQAPGKERELVAAIRRGGSTNYADSVKGRFTISRDNAKNSVYLQMNSLKPEDTAVYYCAKSRVSFTDLVGYYWGQGTQVTVSS", "polyreactivity (PSR sort gate)": "low polyreactivity"},
      {"sequence": "QVQLVDSGGGLVQAGGSLRLTCAASGSTIYKNTMGWDRQGPGKERELVAAITRGGSTYYADSVKGRVTISRDNAKNTVYLQMNSLKPEDTAVYYCNTLTRHRYGYDYWGQGTQVTVSS", "polyreactivity (PSR sort gate)": "high polyreactivity"},
      {"sequence": "QVQLVDSGGGLVQAGGTLRLSCAASGRIFYRYAMGWYRQAPGKERELVASITRSGITHYADSVKGRFTISRDNAKNTVYLQMNSLKPEDTAVYYCKARRGSPAPYDYWGQGTQVTVSS", "polyreactivity (PSR sort gate)": "high polyreactivity"},
      {"sequence": "QVQLVDSGGGLVQAGGTLRLSCAASGSTLYFYAMGWYRLAPGKERELVAAITYIGGRTSYADSVKGRFTISRDNAKNTVYLQMNSLKPEDTAVYYCAAAPYGYRRYEYWGQGTQVTVSS", "polyreactivity (PSR sort gate)": "high polyreactivity"},
      {"sequence": "QVQLVDSGGGLVQAGVSLRLSCAASGSIFRGNAMGWYRQAPVKERELVAAINKSGGSTYYADSVKGRFTISRDNAKNTVYLQMNSLKQEDTAVYYCAAVYKRLQPYGYWGQGTQVTVSS", "polyreactivity (PSR sort gate)": "high polyreactivity"},
      {"sequence": "QVQLVDSGGGLVQAVGSLRLSCAASGRTFYANAMGWYRQAPGKERELVAAISSRSGTTHYADSVKGRFTISRDNAKNTVYLQMNSLKPEDTAVYYCNRQKWRLLTMGAHNRQAYDSWGQGTQVSVSS", "polyreactivity (PSR sort gate)": "low polyreactivity"},
      {"sequence": "QVQLVDSGGGLVQEGGSLRISCAASGFTFPRNAMGWYIQAPGKERELVAAINSGGGTNYADSVKGRFTISRDNAKNTVYLQMNSLKPEDTAVYYCAKDHGSFEMDYWGLGTQVTVSS", "polyreactivity (PSR sort gate)": "low polyreactivity"},
      {"sequence": "QVQLVDSGGGSVQAGGSLRLSCAASGSTFYENAMGWYRQAPGKERELVAAITWSGGRTYYADSVKGRFTISRDNAKNTVYLQMYSLKPEDTAVYYCNARERSRKFYYWGQGTQVTVSS", "polyreactivity (PSR sort gate)": "high polyreactivity"},
      {"sequence": "QVQLVDSGGVLFQAGVSLLISCYASGITFYSYALGRNRRAPGKDWELVASITKSSGRTYYADSVKGRFTISRDNAKTTVSLQMNSVKPEDTAVYYCKAYYVALPPNMDYWGQGTQVTVSS", "polyreactivity (PSR sort gate)": "high polyreactivity"},
      {"sequence": "QVQLVDSGGVLVQAGGSLRLSCAASGFTFRDYAMGWYRQAPGKERELVAAISRSGDSTYYADSVKGRFTISRDNAKNTVYLQMNSLKPEDTAVYYYAAKRRYTTYDYWGQGTQVTVSS", "polyreactivity (PSR sort gate)": "high polyreactivity"},
      {"sequence": "QVQLVDSGGYLVQAGGSLRLSCAASGTTSLFYAMGWYRQAPGKERELVAAISRTGSTHYADSVKGRFTIARANAKYTVYLQMNSLKAEDTAVYYCAAYYRYRSGRYYYWGQGTQVTVSS", "polyreactivity (PSR sort gate)": "high polyreactivity"},
      {"sequence": "QVQLVDSGRGLVQAGGSLRLSCAASGFTVGVNAMGWDRQAPGKERELVAAITRSGGTTYYADSVQGRFTISRDKAKNTVYLQMNSLKPEDTAVYYCNRRARSYADDYWGQGTQVTVSS", "polyreactivity (PSR sort gate)": "high polyreactivity"},
      {"sequence": "QVQLVDSGVGLVQAGGSLRLTCAASGITFYYYAMGWYRQAPGKERELVARISSGGSTNYSDSVNGRFTISRDNAKNTVYLQMISLKPEDTAVYYCAAVRHRAMDYWGQGTQVTVSS", "polyreactivity (PSR sort gate)": "low polyreactivity"},
      {"sequence": "QVQLVDSVGGLVQAGGTHRLSCAASGSIFEIYAMGWYRQAPGKERELVASITSSGGSTYYADSVKGRFTISRDYAKNTVYLQMNSLKPEDTAVYYCATDKRYGRTVRMDYWGQGTQVTVSS", "polyreactivity (PSR sort gate)": "low polyreactivity"},
      {"sequence": "QVQLVDSWGGLVQAGGSLRLSCAASGSIFYRKAMGCYRQAPGKERELFAAITRSDVRTYYADSVKGRFTISRDNAKNTVYLQMNSLKPEDTAVYYCAALEYGSYQHFGEDYWGQGSQVTVSS", "polyreactivity (PSR sort gate)": "low polyreactivity"},
      {"sequence": "QVQLVEAGGGFVQAGGSLRLSCAASGSIIVPYAMGWYRQPPGKESELVAAISSRGGRTYYADSVKGRFTISRENAMNSVYLQMNSLKPEDSAVYDCNKTGGSHIPRLEYWGQGTQVTVSS", "polyreactivity (PSR sort gate)": "low polyreactivity"},
      {"sequence": "QVQLVEAGGGLGQAGGSLRLSCAASGRILTPYARGWYRQAPGKERELVAANTSGGRTHYAHSVKGRFTMSRDNAKNTVYLQMNSLTPEDTAVYYCAARVRTGWWVRDDYWGQGTQVTLSS", "polyreactivity (PSR sort gate)": "high polyreactivity"},
      {"sequence": "QVQLVEAGGGLVQAGGRLRLSCAASGSIFRRNAMGWYRQAPGTERELVASISSSGGSTYYADSVKGRFTLSRDNAMNTVYLQMNSLKPEDTAVYYCNAYRIRPGTPYGNGYYYWGQGTQVTGSS", "polyreactivity (PSR sort gate)": "high polyreactivity"},
      {"sequence": "QVQLVEAGGGLVQAGGSLRISCAASGITFLSNAMGWYRQAPGKEMELVAVITIGGSTYYADSVKGRFTISRDNAKNTVFLQLNSLKPEDTAVYYCAVELVAVPDRRFNYWGQGTQVTVSS", "polyreactivity (PSR sort gate)": "low polyreactivity"},
      {"sequence": "QVQLVEAGGGLVQAGGSLRLSCAASGGIFSTYTMRWYRQAPGKERELVAAITTGNSTYYADSVKVRFTISRDNAKNTVYLQMNSLKPEDSAVYYCAAFADSRDYYRRLIHDGYDYWGQGTQVTVSS", "polyreactivity (PSR sort gate)": "low polyreactivity"},
      {"sequence": "QVQLVEAGGGLVQAGGSLRLSCAASGITFGDNAMGWYIQAPGKDRELVAAITLSDVDTYADSVKGRFTISRDNSKNTVYLQMISLKPEDTAVYDCAADYDFFSLYLYDYWGQGTQVTVSS", "polyreactivity (PSR sort gate)": "low polyreactivity"}
    ]}
  ]
}
